Data as given in US20240301022A1 (published 2024).

Target: human β1-adrenergic receptor (human, UniProt P08588 1-477)
Test: radioligand saturation binding, transfected CHO-K1

Chain of human β1-adrenergic receptor (P08588 whole entry): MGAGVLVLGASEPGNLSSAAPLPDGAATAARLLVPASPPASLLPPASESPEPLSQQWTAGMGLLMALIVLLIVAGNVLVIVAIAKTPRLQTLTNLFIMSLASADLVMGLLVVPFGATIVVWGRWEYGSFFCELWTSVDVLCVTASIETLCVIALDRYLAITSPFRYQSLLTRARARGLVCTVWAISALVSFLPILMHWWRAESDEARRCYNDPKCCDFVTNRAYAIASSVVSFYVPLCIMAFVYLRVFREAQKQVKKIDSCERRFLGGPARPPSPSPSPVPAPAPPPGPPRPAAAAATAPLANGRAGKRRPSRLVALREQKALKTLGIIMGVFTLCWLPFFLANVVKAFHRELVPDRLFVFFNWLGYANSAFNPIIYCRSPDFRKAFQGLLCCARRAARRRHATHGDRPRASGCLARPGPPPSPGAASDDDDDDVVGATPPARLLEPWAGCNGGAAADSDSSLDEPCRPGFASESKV

- Kd: 493 nM
B1: recombinant human zinc-α2-glycoprotein (ZAG) (ligand)
chain: QENQDGRYSLTYIYTGLSKHVEDVPAFQALGSLNDLQFFRYNSKDRKSQPMGLWRQVEGMEDWKEDSQLQKAREDMETLKDIVEYYNDSNGSHVLQGRFGCEIENNRSSGAFWKYYYDGKDYIEFNKEIPAWVPFDPAAQITKQKWEAEPVYVQRAKAYLEEECPATLRKYLKYSKNILDRQDPPSVVVTSHQAPGEKKKLKCLAYDFYPGKIDVHWTRAGQVQEPELRGDVLHNGNGTYQSWVVVAVPPQDTAPYSCHVQHSSLAQPLVVPWEAS
modifications: 125I label (iodo bead labelling) in the membrane binding studies; labelled residues not stated
